Substitutions are numbered along the chain they refer to.

In data set [1] the target is T1, recombinant human PEDF expressed in CHO cells (UniProt P36955).
T1 sequence: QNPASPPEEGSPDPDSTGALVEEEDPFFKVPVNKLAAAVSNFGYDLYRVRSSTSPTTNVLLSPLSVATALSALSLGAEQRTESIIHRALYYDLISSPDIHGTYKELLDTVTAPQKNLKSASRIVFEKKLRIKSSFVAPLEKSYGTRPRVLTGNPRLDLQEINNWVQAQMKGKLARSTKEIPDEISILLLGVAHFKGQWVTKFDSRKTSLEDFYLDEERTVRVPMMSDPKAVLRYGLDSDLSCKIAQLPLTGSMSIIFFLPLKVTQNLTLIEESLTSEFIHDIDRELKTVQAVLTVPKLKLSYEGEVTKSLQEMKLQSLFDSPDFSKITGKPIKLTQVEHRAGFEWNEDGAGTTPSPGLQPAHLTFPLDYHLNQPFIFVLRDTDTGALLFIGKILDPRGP

The test system of data set [2] is T2, pigment epithelium derived factor (PEDF) isolated from human plasma.
T2 sequence: T1 sequence with T53M, E78D, Q79E

As for protein kinase CK2 holoenzyme, in data set [1], the “phosphorylation by CK2 in the presence of poly-L-lysine (autoradiography)” value was “both rPEDF and pIPEDF were phosphorylated by CK2 in the presence of poly-L-lysine”; the stoichiometry of phosphorylation entry is “˜0.1 mol of phosphate per mol of rPEDF”; the “stoichiometry of phosphorylation, rPEDF heat-treated (15 min at 56° C.) before phosphorylation” value was “reached a plateau at ˜0.25 mol/mol”. For the same substance, in data set [2], the “phosphorylation by CK2 in the presence of poly-L-lysine (autoradiography)” value is “both rPEDF and pIPEDF were phosphorylated by CK2 in the presence of poly-L-lysine”; the stoichiometry of phosphorylation entry is “˜0.02 mol of phosphate per mol of plasma PEDF”; the “stoichiometry of phosphorylation, plasma PEDF heat-treated (15 min at 56° C.) before phosphorylation” value is given as “reached a plateau at ˜0.12 mol/mol”.

These data come from patent US20050148508.
